# Test results published in patent publication US12551573B2, “Compositions and methods for the targeting of PCSK9” (Scribe Therapeutics Inc., priority 2022, dated 2026).
# Residue numbers refer to the chain shown, from its start.
# B1: DOMAIN_32223 (protein, listed as Homo sapiens)
# chain: GPQGARRQAFLAFGDVTVDFTQKEWRLLSPAQRALYREVTLENYSHLVSLGILHSKPELIRRLEQGEVPWGEERRRRPGP
# B2: DOMAIN_26886 (protein, listed as Homo sapiens)
# chain: QLQETMTFKDVEVTFSQDEWGWLDSAQRNLYRDVMLENYRNMASLVGPFTKPALISWLEAREPWGLNMQAAQPKGNPVAAP
# B3: DOMAIN_31935 (protein, listed as Rhinolophus ferrumequinum)
# chain: EKIEDMAVSLIREEWLLDPSQKDLRRDNRTENYRNMFSLGGETRSENRELASKQVASAGVQPHGETAARCNGDVTGALEHGEARDLLGSRVERQRAN
# B4: DOMAIN_32327 (protein, listed as Homo sapiens)
# chain: NMSQASVSFQDVTVEFTREEWQHLGPVERTLYRDVMLENYSHLISVGYCITKPKVISKLEKGEEPWSLEDEFLNQRYPGY
# B5: DOMAIN_26501 (protein, listed as Geotrypetes seraphini)
# chain: AQVPVTFEDIAVYFSQEEWEDLEEQQRELYKDVMKENYETLSSLGPPAVTPDIISHIERGEEPYIRFESGPEEREIGKSSC
# B6: DOMAIN_29066 (protein, listed as Xenopus tropicalis)
# chain: VKFDEVAVVFSEDEWNLLTDQQRGLYMEVMKENYEHLIYLGFEVPVILSLLQDGGGIGSDTVTQSKSQQVAGAEESKSSVTLEGPIPETLPS
# B7: DOMAIN_28823 (protein)
# chain: QVPVTFEDITVYFSREQWEYLDEGQKELYREVMKENYETLISLGTGPEGFNPEVLARIKLEEESHVWDPKEPGQKEVTRSY
# modifications: Microcaecilia unicolor
# B8: DOMAIN_27579 (protein)
# chain: SQELLTFKDISVDFTQEEWGQLAPAHRNLYREVMLENYGNLVSVAGCQLSKPSVISQLEKGEEPWMTEKEGPGDPSSDLKS
# modifications: Muntiacus muntjak
# B9: DOMAIN_28051 (protein, listed as Neomonachus schauinslandi)
# chain: B8 chain with E3G, C47Y, E62Q, P75S, S81N
# B10: DOMAIN_27902 (protein)
# chain: B8 chain with I10V, A23S, P24L, C47Y, E62Q, E70K, S77P, S81N
# modifications: Vulpes vulpes
# B11: DOMAIN_28085 (protein, listed as Enhydra lutris)
# chain: B8 chain with A23P, P24L, C47Y, E62Q, G71V, G73E, K80R, S81T
# B12: DOMAIN_31340 (protein, listed as Homo sapiens)
# chain: LTFEDVAVYFSEEEWQLLNPLEKTLYNDVMQDIYETVISLGLKLKNDTGNDHPISVSTSEIQTSGCEVSKKTRMKIAQKTMGRE
# B13: DOMAIN_27566 (protein)
# chain: QLTFEDVALSFSKEEWQIMDPNQKTLYIDVMREIYETVTSLGLKLKNDTGNDQPVSLSTSEIQPSGCKVLRKARMKVAQTT
# modifications: Muntiacus muntjak
# B14: DOMAIN_28158 (protein, listed as Odocoileus virginianus)
# chain: B13 chain with R32Q
# B15: DOMAIN_29434 (protein, listed as Mus caroli)
# chain: MTYDDVHVNFTGEEWALLSPSQKRLYKDVMLETYRNLTAIGYNWEDHNSEHFQHSRRHGRHERRHTGEKPSVYTQCGKVFAYH
# B16: DOMAIN_26925 (protein, listed as Alligator sinensis)
# chain: PETVVSFEDVAVRFSPDEWHLLDDGQRRLYRDVLRENYSHVRSLGFPVPDLAVIFRMERGEEPWPPGLPAGTKSDDQEEER
# B17: DOMAIN_27032 (protein, listed as Alligator mississippiensis)
# chain: B16 chain with T72E, K73W, S74P, D75W, D76G, E78G, E79Q, E80A, R81P
# B18: DOMAIN_29900 (protein)
# chain: VAFEDVAVNFTQEEWALLNSSQKNLYREVMQETCRNLASVGSKWKDQNIEDHFEKPGKNIRKHMVQKLCESKEGSQYGEVVSQIPNL
# modifications: Nomascus leucogenys
# B19: DOMAIN_26999 (protein, listed as Xenopus laevis)
# chain: AQDPVTFDDISVYFSRDEWALLDAGQKQLYREVMAENYRALVSVGYVMEEPGLVSHIEHEQQGSPIRSRSSLHAGRHCGFI
# B20: DOMAIN_2629 (protein, listed as Pongo sp.)
# chain: MFPPARGKELLSFEDVAMYFTREEWGHLSWGQKDLYRDVMLENYRNMVLLGFQFPKPEVICQLENWDEQWILDLPRAGNRK
# B21: DOMAIN_4516 (protein, listed as Callithrix sp.)
# chain: MAAIPLKAQCQETVTFEDVAVHFTKTEWTGLSPAQRALYRSVMLENYGNLTAMGYLVPKPALISLLEGGDMAWGLEAQDDP
# B22: DOMAIN_3328 (protein, listed as Hylobates sp.)
# chain: MGLVSFKDVAVDFTQEEWQQLDPSQRTLYRDVMLENYSHLVSMGYPVSKPDVISKLEQGEEPWIIKGDISNWIYPDEYQAD
# B23: DOMAIN_2563 (protein, listed as Pongo sp.)
# chain: MGPQGARRQAFLAFGDVTVDFTQKEWRLLSPTQRALYREVTLENYSHLVSLGILHSKPELIRRLEQGEAPWGEERRRRPGP
# B24: DOMAIN_5946 (protein, listed as Homo sapiens)
# chain: RQAFLAFGDVTVDFTQKEWRLLSPAQRALYREVTLENYSHLVSLGILHSKPELIRRLEQGEVPWGEERRRRPGPCAGIYAE
# B25: DOMAIN_5791 (protein, listed as Homo sapiens)
# chain: EPGAVSFADVAVYFCREEWGCLRPAQRALYRDVMRETYGHLSALGIGGNKPALISWVEEEAELWGPAAQDPEVAKCQTQTD
# B26: DOMAIN_2754 (protein, listed as Hylobates sp.)
# chain: MAGEAEAQLDPSLQGLVMFEDVTVYFSREEWGLLNVTQKGLYRDVMLENFALVSSLGLAPSRSPVFTQLEDDEQSWVPNWV
# B27: DOMAIN_4774 (protein, listed as Callithrix sp.)
# chain: HGSSYEGSVSFRDVAINFSREEWRHLDLSQRNLYWDVMLETYSHLLSVGYQFPKPEVVMLEQGNEPWALQGERPRHSCPGE
# B28: DOMAIN_4120 (protein, listed as Macaca mulatta)
# chain: MAFEDVAVYFSQEEWGLLDTAQRALYRHVMLENFTLVTSLGLSTSRPHVVIQLERGEEPWVPSGKDMTLARNTYRRLNAGS
# B29: DOMAIN_5005 (protein, listed as Callithrix sp.)
# chain: B28 chain with Q12E, H48L, E58D, G64V, T73A, R75G, L77R, N78T, A79T
# B30: DOMAIN_5188 (protein, listed as Aotus trivirgatus)
# chain: MITAQGPVSFRDVTVGFTQEEWQHLDPAQRTLYRDVMIENYSHLVSVGYCIPKPEVILKLEKGEEPWISEEKFPSQSHLEL
# B31: DOMAIN_3463 (protein, listed as Hylobates sp.)
# chain: MMTAVSLTTRPQESVAFEDVAVYFTAKEWDIMVPAERALYRDVMLENYEAVAFVVPPTSKPALVSHLEQGKESCFTRPQGV
# B32: DOMAIN_2499 (protein, listed as Pongo sp.)
# chain: MNSEVIVDPIQGQVNFEDVFVYFSQEEWVLLDEAQRLLYRDVMLENFALMASLGHTSFMSHIGASLVMGSEPWVPDWVDMI
# B33: DOMAIN_3832 (protein, listed as Macaca mulatta)
# chain: TMSCSRAGGITGCIKYSTASVAFRDVAVDFTQEEWRLLSPAQRTLHREVMLETYNHLVSLEIPSSKPKLIAQLERGEEPWR
# B34: DOMAIN_737 (protein, listed as Pan paniscus)
# chain: MAFEDVAVYFSQEEWGLLDTAQRALYRRVMLDNFALVASLGLSTSRPRVVIQLERGEEPWVPSGTDTTLSRTTYRRRNPGS
# B35: DOMAIN_4121 (protein, listed as Macaca mulatta)
# chain: B34 chain with T68I, T72N
# B36: DOMAIN_5006 (protein, listed as Callithrix sp.)
# chain: B34 chain with G64E, T67M, L69M, T72N, Y74H
# B37: DOMAIN_5440 (protein, listed as Aotus trivirgatus)
# chain: MAVDLLPAQESMTFRDVAVFFSQDEWLHLDSAQRALYREVMLENYSTLVSLGIPFSMPKVIHQLQQGQDPCMVEGEVPSDI
# B38: DOMAIN_5125 (protein, listed as Callithrix sp.)
# chain: MPANEDTPQPGGHGSACEVSVSFEDVTVDFSREEWQQLDSTQRRLYQDVMLENYSHLLSVGFEVPKPEVIFKLEQGEGPWT
# Test system: HBEGF locus
# Assay type: cell-based, human
# Conditions: fold change in abundance of each repressor domain in the dXR library before vs after diphtheria toxin selection; dXR repression of the HBEGF gene; domains meeting p-value <0.01 and log2(fold change) >2
row,Molecule,Log2 (fold change)
1,B1,2.8836
2,B2,3.3209
3,B3,3.5544
4,B4,3.1024
5,B5,2.6513
6,B6,2.6393
7,B7,2.331
8,B8,3.8878
9,B9,2.4353
10,B10,2.9068
11,B11,2.2962
12,B12,2.8261
13,B13,2.7825
14,B14,3.0762
15,B15,2.2707
16,B16,3.2248
17,B17,3.4805
18,B18,2.1583
19,B19,3.4317

# Same assay, conditions: high-throughput screen of dXR repression of the HBEGF gene; change in abundance of each domain in the library before and after diphtheria toxin selection
row,Molecule,Log2 (fold change)
1,B20,3.092
2,B21,2.7603
3,B22,2.3718
4,B23,2.8105
5,B24,3.2998
6,B25,2.6823
7,B26,3.7601
8,B27,2.8894
9,B28,3.3237
10,B29,2.8406
11,B30,2.1842
12,B31,3.5462
13,B32,3.114
14,B33,2.7334
15,B34,4.544
16,B35,3.3195
17,B36,3.8614
18,B37,2.7871
19,B38,2.911
